Results taken from PMC5398546.

Legend:
[1] = target: wild-type human serotonin 5HT1B receptor (residues 34-390) with C-terminal His10 (human) (UniProt P28222); assay: fluorescent saturation binding assay (FSBA); DDM-solubilised donitriptan-bound His-tagged 5HT1BR immobilised on Ni2+-coated 96-well plate; GFP-mini-G protein 0 to 5 μM, 90 min on ice; specific binding = minus the GFP-mini-Gs condition; apparent KD, one-site fit
[2] = target: C-terminally truncated human A2AR (residues 1-317, N154A, C-terminal His10) (human) (UniProt P29274); assay: fluorescent saturation binding assay (FSBA); DDM-solubilised His-tagged β1AR or A2AR immobilised on Ni2+-coated 96-well plate; GFP-mini-Gs 0 to 2.8 μM, 90 min on ice; specific binding = agonist minus inverse agonist condition; apparent KD, one-site fit
Sequence of C-terminally truncated human A2AR (residues 1-317, N154A, C-terminal His10) (human) (P29274 1-317 N154A): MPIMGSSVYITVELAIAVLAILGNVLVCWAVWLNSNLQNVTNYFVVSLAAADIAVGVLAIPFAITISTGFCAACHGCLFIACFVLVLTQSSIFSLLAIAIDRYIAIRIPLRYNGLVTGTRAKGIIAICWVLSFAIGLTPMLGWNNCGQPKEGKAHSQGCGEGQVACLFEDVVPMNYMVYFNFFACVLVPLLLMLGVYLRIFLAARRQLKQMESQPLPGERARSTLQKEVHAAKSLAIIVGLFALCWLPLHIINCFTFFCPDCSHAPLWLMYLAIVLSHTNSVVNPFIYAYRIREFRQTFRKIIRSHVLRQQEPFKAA

Sequence of wild-type human serotonin 5HT1B receptor (residues 34-390) with C-terminal His10 (human) (P28222 34-390): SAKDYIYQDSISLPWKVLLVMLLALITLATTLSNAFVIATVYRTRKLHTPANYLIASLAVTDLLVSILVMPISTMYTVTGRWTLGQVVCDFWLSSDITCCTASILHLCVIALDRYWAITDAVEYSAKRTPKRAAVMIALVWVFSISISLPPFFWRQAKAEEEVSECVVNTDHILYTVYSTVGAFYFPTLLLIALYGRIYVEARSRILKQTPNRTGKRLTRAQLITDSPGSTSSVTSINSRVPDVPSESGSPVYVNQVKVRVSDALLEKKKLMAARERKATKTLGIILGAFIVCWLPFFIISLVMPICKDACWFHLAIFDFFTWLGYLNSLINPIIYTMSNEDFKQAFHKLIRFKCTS

Row | Substance | Kd [1] | Kd [2]
1 | GFP-mini-Go1 (construct 12) (domain or fragment) | 180 nM | 
2 | GFP-mini-Gs (domain or fragment) |  | 430 nM
3 | GFP-mini-Gs/i1 (construct 43) (domain or fragment) | 390 nM | 
